B1: zCUSB0136.8-4 (antibody, V domains shown)
VH: QVQLQESGPGLVKPSETLSLTCTVSGFSLTVYDIIWIRQSPGKGLEWLGVIWTGGDTTYNSAFMSRLTISKDTSKNQISLKMSSLTAADTAVYYCARDWMYWGQGTLVTVSS
VL: DIVLTQSPDSLAVSLGERATISCRASESVDNYGNSFIQWYQQKPGQPPKLLIYFASYLQSGVPDRFSGSGSGTDFTLTISSVQAEDVATYYCHQNNEDPFTFGGGTKLEIK
notes: also called CUSB0136-BMVH.3d with CUSB0136-BMVL.2b
B2: zCUSB0136.8-2 (antibody, V domains shown)
VH: B1 VH with M100I
VL: B1 VL
notes: also called CUSB0136-BMVH.3b with CUSB0136-BMVL.2b
B3: zCUSB0136.8-1 (antibody, V domains shown)
VH: B1 VH with V31T, T58W, M100A
VL: B1 VL with Y32W
notes: also called CUSB0136-BMVH.3a with CUSB0136-BMVL.2a
B4: zCUSB0136.8-3 (antibody, V domains shown)
VH: B1 VH with M100A
VL: B1 VL
notes: also called CUSB0136-BMVH.3c with CUSB0136-BMVL.2b
B5: mCUSB0103 (antibody, V domains shown)
VH: DVKLVESGGGLVKPGGSLKLSCAASGFTFSSYTMSWVRQTPEKRLEWVAAISGGGSYTYYADSVKGRFTISRDNAKNTLSLQMSSLKSEDTAMYFCTSPYDFAMDYWGQGTSVTVSS
VL: DIQMTQTTSSLSASLGDRVTISCRASQDITNYLNWYQQKPDGSVKLLIYYTSRLHSGVPSRFRGSGSGTDYSLTISNLEQEDIATYFCQQGNTLPWTFGGGTKLEIK
notes: Mouse monoclonal antibody purified from hybridoma
B6: mCUSB0126 (antibody, V domains shown)
VH: VKLVESGGDLVKPGGSLKLSCAASGFPFSSYLMSWVRQTPEKRLEWVAAISGGGRDTYYPDNVKGRFTISRDNARNILYLQMSSLRSEDTAVYYCATRGSYAMDYWGQGTSVTVSS
VL: DIQMTQSPASQSASLGESVTITCLASQTIGTWLAWYQQKPGKSPQILIYAATNLADGVPSRFSGSGSGTKFSFKISSLQAEDFVSYYCQQLYSIPWTFGGGTKLEIK
notes: as for B5
B7: mCUSB0124 (antibody, V domains shown)
VH: QIQLVQSGPELKKPGETVKISCKASGYIFTNYGVTWVKQTPGKGLKWMTWINTNTGEPTSAEEFKGRFDFSSETSATTAYLQINNLKNEDTATYFCVRIRENAMDYWGQGTSVTVSS
VL: B6 VL with I46L, N53R, D56V, S77R, I94T, W96F, G100S
notes: as for B5
B8: mCUSB0129 (antibody, V domains shown)
VH: B6 VH with D9G, N62S, V92L, T97R
VL: B6 VL with A50D
notes: as for B5
B9: mCUSB0123 (antibody, V domains shown)
VH: QVQLQQSGPELVRPGESVKISCKGSGYTFTDYVMHWVKQSHAKSLEWIGVITIYNDITNYNQKFKGKATMTIDKSSSTAYMELARLTSEDSAIYYCAREGYDSYWYFDVWGAGTTVTVSS
VL: DVLMTQTPLSLPVSLGDQASISCRSSQTIVHSNGNTYLEWYLQKPGQSPKLLIYKVSNRFSGVPDRFSGSGSGTDFTLKISRVEAEDLGVYYCFQGSHLPYTFGGGTKLEIK
notes: as for B5
B10: Modified Seq15 (modified zCUSB0136.8 antibody) (antibody, V domains shown)
VH: B1 VH with M100A
VL: B1 VL with Y32W, Y57N
B11: Modified Seq13 (modified zCUSB0136.8 antibody) (antibody, V domains shown)
VH: B1 VH with V31T, M100A
VL: B1 VL
B12: Modified Seq16 (modified zCUSB0136.8 antibody) (antibody, V domains shown)
VH: B1 VH with V31T, M100A
VL: B1 VL
B13: Modified Seq21 (modified zCUSB0136.8 antibody) (antibody, V domains shown)
VH: B1 VH with V31T, M100A
VL: B1 VL with Y32W, Y57N
B14: Modified Seq17 (modified zCUSB0136.8 antibody) (antibody, V domains shown)
VH: B1 VH with M100A
VL: B1 VL
B15: Modified Seq23 (modified zCUSB0136.8 antibody) (antibody, V domains shown)
VH: B1 VH with T58N, M100A
VL: B1 VL with Y32W
B16: Modified Seq25 (modified zCUSB0136.8 antibody) (antibody, V domains shown)
VH: B1 VH with V31T, M100A
VL: B1 VL with Y57H
B17: Modified Seq20 (modified zCUSB0136.8 antibody) (antibody, V domains shown)
VH: B1 VH with M100I
VL: B1 VL with Y57H
B18: Modified Seq24 (modified zCUSB0136.8 antibody) (antibody, V domains shown)
VH: B1 VH with M100A
VL: B1 VL with Y57Q
B19: Modified Seq22 (modified zCUSB0136.8 antibody) (antibody, V domains shown)
VH: B1 VH with V31T, M100A
VL: B1 VL with Y32W, Y57N
B20: Modified Seq19 (modified zCUSB0136.8 antibody) (antibody, V domains shown)
VH: B1 VH with V31T, M100A
VL: B1 VL with Y32W, Y57N
B21: Modified Seq18 (modified zCUSB0136.8 antibody) (antibody, V domains shown)
VH: B1 VH with V31T, M100A
VL: B1 VL with Y32W, Y57Q

Positions count from the first letter of the chain named.

In one experiment the target is T1, recombinant human PD-1 His-tag protein (R&D Systems) (human, UniProt Q15116 25-167).
T1 construct: Bought reagent; Used for the ELISA (coated) and for SPR (analyte); also called PD-1 protein; human PD-1 protein; not shown: His-tag
T1 sequence (Q15116 25-167 limits assumed): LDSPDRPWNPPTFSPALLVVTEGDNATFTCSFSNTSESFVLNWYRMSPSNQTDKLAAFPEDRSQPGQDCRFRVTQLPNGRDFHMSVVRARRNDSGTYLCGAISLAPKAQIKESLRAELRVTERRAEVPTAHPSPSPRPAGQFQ
Put plainly: SPR, Biacore T200, as in Example 8 (antibody on Protein G chip, PD-1 His-tag injected). Here is the method:
The Biacore T200 instrument, equipped with a Protein G sensor chip (GE Healthcare), was used to determine the binding kinetics between chimeric anti-PD-1 antibodies and PD-1 protein. Each purified chimeric anti-PD-1 antibody (1 μg/mL) was injected into the chip with a flow rate of 30 μL/min for 60 sec. […] The HBS-EP+buffer (GE Healthcare) was used as a buffer blank and diluent. The association constant (kₒₙ), dissociation constant (koff), and equilibrium constant (KD) values were calculated using Biacore T200 evaluation software (version 3.1) with a 1:1 Langmuir binding model curve fitting.
A general note: SPR reads the build-up and loss of mass on a sensor chip optically.
B1: the Kd turned out to be 0.0159 nM, the koff is 7.02e-05 s⁻¹ and the kon was determined as 4.42e+06 M⁻¹ s⁻¹.

On to B2, for which the Kd is 0.0155 nM, the koff was 7.27e-05 s⁻¹ and the kon came to 4.68e+06 M⁻¹ s⁻¹.

B3: the dissociation constant (Kd) came to 0.0237 nM, the koff was determined as 0.000142 s⁻¹ and the kon came to 6e+06 M⁻¹ s⁻¹.

As for B4, the Kd came to 0.0208 nM, the koff amounted to 9.31e-05 s⁻¹ and the kon came to 4.48e+06 M⁻¹ s⁻¹.

For a further experiment, the target named is human PD-1 on PD-1-expressing Jurkat effector cells (human, UniProt Q15116 25-288). Nature of the experiment: cell-based or functional assay.
Chain of human PD-1 on PD-1-expressing Jurkat effector cells (Q15116 25-288): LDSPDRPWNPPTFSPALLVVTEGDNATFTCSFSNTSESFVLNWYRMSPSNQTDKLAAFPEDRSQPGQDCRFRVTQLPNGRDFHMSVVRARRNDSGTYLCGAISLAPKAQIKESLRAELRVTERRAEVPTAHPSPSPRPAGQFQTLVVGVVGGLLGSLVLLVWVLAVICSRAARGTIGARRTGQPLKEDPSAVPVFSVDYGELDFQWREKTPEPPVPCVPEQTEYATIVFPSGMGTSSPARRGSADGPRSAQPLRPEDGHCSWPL
For the molecule B5, the “PD-1/PD-L1 blockade bioassay, IC50” value came to 0.843 µg/mL.

Consider B6, for which the “PD-1/PD-L1 blockade bioassay, IC50” value was 0.846 µg/mL.

On to B7, for which the “PD-1/PD-L1 blockade bioassay, IC50” value came out at 6.58 µg/mL.

As to B8, the “PD-1/PD-L1 blockade bioassay, IC50” value was determined as 1.83 µg/mL.

For B9, the “PD-1/PD-L1 blockade bioassay, IC50” value amounted to 2.43 µg/mL.

Another experiment addresses T1, recombinant human PD-1 His-tag protein …. Put plainly: ELISA, PD-1 His-tag coated on plate, anti-mouse IgG Fc-HRP detection. Here is the method:
ELISA technique was used to select hybridoma mini-pools producing anti-PD-1 antibodies using the following procedure. MaxiSorp ELISA plate was coated with PD-1 His-tag (R&D System) in PBS buffer (10 ng/100 μL/well) at 4° C. overnight. […] The culture supernatant of each mini-pool (100 μL) was added to the plate then incubated for 1 hour at 37° C. After washing, the plate was probed with goat anti-mouse IgG Fcγ-HRP (Jackson Immuno Research) diluted 1:8,000 in PBST (100 μL/well) and incubated for 1 hour at 37° C. […] 1 M H₂SO₄ (50 μL/well) was used to stop the reaction. […] Hybridoma mini-pools with absorbance values of more than 1.0 were selected for further screening.
The purified antibodies were 2-fold serial diluted for eleven rounds starting from 2 μg/mL until reaching the final concentration of 0.977 ng/mL. The PD-1 binding activity of purified antibodies was evaluated by ELISA following the procedure mentioned in Example 2. The half-maximal effective concentration (EC₅₀) was calculated using GraphPad Prism® software.
In general terms: An ELISA detects its analyte on a solid surface through an enzyme-linked reagent.
B5: the EC50 stood at 0.0494 µg/mL.

Consider B6, for which the concentration giving a half-maximal response (EC50) stood at 0.0442 µg/mL.

In the case of B7, the EC50 is 0.104 µg/mL.

As to B8, the EC50 was found to be 0.074 µg/mL.

Turning to B9, the EC50 amounted to 0.0701 µg/mL.

For the next experiment the target is unchanged. Nature of the experiment: binding kinetics (method not described at the table; presumably SPR as in Example 8).
Consider B10, for which the Kd was 0.0246 nM, the koff amounted to 6.3e-05 s⁻¹ and the association rate constant (kon) stood at 2.56e+06 M⁻¹ s⁻¹.

As for B11, the Kd was determined as 0.0243 nM, the koff stood at 8.47e-05 s⁻¹ and the kon is 3.49e+06 M⁻¹ s⁻¹.

Consider B12, for which the Kd is 0.0266 nM, the koff turned out to be 9.31e-05 s⁻¹ and the kon came out at 3.5e+06 M⁻¹ s⁻¹.

On to B13, for which the Kd stood at 0.0412 nM, the off-rate (koff) turned out to be 0.000104 s⁻¹ and the kon is 2.52e+06 M⁻¹ s⁻¹.

Consider B14, for which the Kd amounted to 0.0289 nM, the koff amounted to 7.39e-05 s⁻¹ and the kon stood at 2.56e+06 M⁻¹ s⁻¹.

Consider B15, for which the dissociation constant Kd turned out to be 0.0582 nM, the koff was 0.000288 s⁻¹ and the kon was found to be 4.96e+06 M⁻¹ s⁻¹.

As for B16, the Kd amounted to 0.0664 nM, the dissociation rate constant (koff) amounted to 0.000145 s⁻¹ and the kon stood at 2.18e+06 M⁻¹ s⁻¹.

With B17, the Kd was found to be 0.0319 nM, the koff was determined as 8.7e-05 s⁻¹ and the kon worked out at 2.73e+06 M⁻¹ s⁻¹.

For B18, the dissociation constant (Kd) stood at 0.0618 nM, the koff was 0.000112 s⁻¹ and the kon is 1.81e+06 M⁻¹ s⁻¹.

For B19, the Kd was 0.057 nM, the koff turned out to be 0.000134 s⁻¹ and the kon was 2.36e+06 M⁻¹ s⁻¹.

In the case of B20, the dissociation constant Kd turned out to be 0.0315 nM, the koff stood at 7.97e-05 s⁻¹ and the kon came out at 2.53e+06 M⁻¹ s⁻¹.

In the case of B21, the Kd was 0.0307 nM, the koff was determined as 7.82e-05 s⁻¹ and the kon is 2.54e+06 M⁻¹ s⁻¹.

In general, Kd refers to a measure of binding affinity in units of concentration. For orientation: koff means a measure of how fast the partners let go of each other. The kon is a measure of how fast the partners come together. The term EC50 denotes the concentration that produces a half-maximal response.

These data come from patent publication US20260098092A1 (CHULALONGKORN UNIVERSITY, published 2026).
